Results as given in the Human Domainome abundance scans (Beltran et al. 2025).
± gives the uncertainty stated by the source.

B1: F-BAR and double SH3 domains protein 1, residues 467 to 528; numbered along this chain, Q86WN1 (parent)
chain: RALPCPAHVVFRYQAGREDELTITEGEWLEVIEEGDADEWVKARNQHGEVGFVPERYLNFPD
B2: Cullin-9, residues 2234 to 2275; numbered along this chain, Q8IWT3 (parent)
chain: KRCPSCQAPIEKNEGCLHMTCAKCNHGFCWRCLKSWKPNHKD

Variants of: B1
Assay: abundance fitness (aPCA) (normalised: wild type 0, dead -1); higher = more abundant; growth selection in yeast, the domain comes from the species named
Details: Homo sapiens

In order of falling abundance fitness:
1. E25Y  0.189 ± 0.26
2. A2T  0.184 ± 0.069
3. H47A  0.164 ± 0.06
4. A2N  0.147 ± 0.12
5. A2F  0.144 ± 0.12
6. W28F  0.134 ± 0.086
7. R12S  0.133 ± 0.048
8. A2G  0.133 ± 0.043
9. A2V  0.128 ± 0.055
10. Y57N  0.109 ± 0.083
11. W28V  0.107 ± 0.071
12. Y57V  0.103 ± 0.039
13. E49Q  0.101 ± 0.073
14. F52Y  0.093 ± 0.085
15. E55V  0.054 ± 0.05
16. H47K  0.048 ± 0.07
17. E55R  0.038 ± 0.042
18. E55M  0.035 ± 0.049
19. D62T  0.028 ± 0.079
20. D38Q  0.021 ± 0.099
21. H47L  0.01 ± 0.041
22. W28H  0.01 ± 0.1
23. D38S  0.005 ± 0.045
24. R44K  0.003 ± 0.09
25. D62S  0 ± 0.056
26. E30Q  -0.02 ± 0.066
27. E55C  -0.02 ± 0.061
28. P61N  -0.042 ± 0.096
29. W28D  -0.046 ± 0.1
30. E30T  -0.055 ± 0.065
31. E55N  -0.055 ± 0.091
32. D62G  -0.057 ± 0.089
33. E55D  -0.057 ± 0.11
34. F60W  -0.064 ± 0.051
35. P6R  -0.077 ± 0.046
36. P6A  -0.094 ± 0.062
37. Y13H  -0.109 ± 0.11
38. Q14M  -0.121 ± 0.081
39. E55P  -0.123 ± 0.088
40. E25A  -0.129 ± 0.078
41. G48S  -0.132 ± 0.064
42. E20H  -0.138 ± 0.13
43. E55Q  -0.138 ± 0.069
44. E25V  -0.154 ± 0.12
45. Y57D  -0.161 ± 0.092
46. G35F  -0.172 ± 0.11
47. H47T  -0.172 ± 0.065
48. R44C  -0.178 ± 0.11
49. F52C  -0.189 ± 0.088
50. F60L  -0.213 ± 0.041
51. G35Y  -0.223 ± 0.11
52. R44T  -0.23 ± 0.081
53. P6V  -0.243 ± 0.049
54. P4E  -0.285 ± 0.12
55. G48F  -0.293 ± 0.14
56. E25L  -0.298 ± 0.069
57. Y57I  -0.309 ± 0.09
58. D62R  -0.309 ± 0.15
59. G35L  -0.318 ± 0.047
60. F60R  -0.329 ± 0.047
61. P4G  -0.333 ± 0.068
62. G26Q  -0.34 ± 0.13
63. G48H  -0.34 ± 0.16
64. G35Q  -0.379 ± 0.095
65. E20S  -0.385 ± 0.061
66. V31Y  -0.431 ± 0.22
67. Y13G  -0.463 ± 0.083
68. F60P  -0.466 ± 0.18
69. G26W  -0.474 ± 0.11
70. P4Y  -0.477 ± 0.15
71. E27T  -0.482 ± 0.09
72. P4A  -0.496 ± 0.11
73. G26A  -0.501 ± 0.078
74. V31M  -0.501 ± 0.12
75. F60N  -0.531 ± 0.16
76. V53A  -0.564 ± 0.081
77. G48Q  -0.574 ± 0.19
78. R44Y  -0.587 ± 0.13
79. Y57E  -0.595 ± 0.11
80. Y13L  -0.595 ± 0.077
81. V53Q  -0.624 ± 0.1
82. E27M  -0.653 ± 0.12
83. V53R  -0.662 ± 0.065
84. V53M  -0.673 ± 0.11
85. L29P  -0.688 ± 0.11
86. E27A  -0.711 ± 0.16
87. I23D  -0.739 ± 0.19
88. R44H  -0.74 ± 0.14
89. G26L  -0.741 ± 0.092
90. E20I  -0.746 ± 0.18
91. E30P  -0.753 ± 0.12
92. R44F  -0.756 ± 0.09
93. I23F  -0.791 ± 0.1
94. R12I  -0.792 ± 0.17
95. L29C  -0.819 ± 0.24
96. G26F  -0.871 ± 0.2
97. R44G  -0.898 ± 0.088
98. E27W  -0.911 ± 0.16
99. V53E  -0.934 ± 0.16
100. I23Q  -0.936 ± 0.13
101. G26V  -0.942 ± 0.15
102. E27L  -0.961 ± 0.12
103. L29G  -0.975 ± 0.18
104. V53S  -0.981 ± 0.097
105. V31D  -0.992 ± 0.32
106. L29F  -1.03 ± 0.33
107. N45E  -1.08 ± 0.37

Variants of: B2
Assay: as above
Details: Homo sapiens

In order of falling abundance fitness:
1. KICPSCQAPIEKNEGCLHMTCAKCNHGFCWRCLKSWKPNHKD [R2I]  1.09 ± 0.27
2. KNCPSCQAPIEKNEGCLHMTCAKCNHGFCWRCLKSWKPNHKD [R2N]  0.571 ± 0.14
3. KMCPSCQAPIEKNEGCLHMTCAKCNHGFCWRCLKSWKPNHKD [R2M]  0.559 ± 0.11
4. KYCPSCQAPIEKNEGCLHMTCAKCNHGFCWRCLKSWKPNHKD [R2Y]  0.242 ± 0.13
5. KLCPSCQAPIEKNEGCLHMTCAKCNHGFCWRCLKSWKPNHKD [R2L]  0.227 ± 0.089
6. KGCPSCQAPIEKNEGCLHMTCAKCNHGFCWRCLKSWKPNHKD [R2G]  0.204 ± 0.079
7. KECPSCQAPIEKNEGCLHMTCAKCNHGFCWRCLKSWKPNHKD [R2E]  0.175 ± 0.1
8. IRCPSCQAPIEKNEGCLHMTCAKCNHGFCWRCLKSWKPNHKD [K1I]  0.164 ± 0.34
9. KTCPSCQAPIEKNEGCLHMTCAKCNHGFCWRCLKSWKPNHKD [R2T]  0.147 ± 0.1
10. KKCPSCQAPIEKNEGCLHMTCAKCNHGFCWRCLKSWKPNHKD [R2K]  0.123 ± 0.1
11. KHCPSCQAPIEKNEGCLHMTCAKCNHGFCWRCLKSWKPNHKD [R2H]  0.104 ± 0.35
12. KACPSCQAPIEKNEGCLHMTCAKCNHGFCWRCLKSWKPNHKD [R2A]  0.084 ± 0.096
13. KSCPSCQAPIEKNEGCLHMTCAKCNHGFCWRCLKSWKPNHKD [R2S]  0.077 ± 0.092
14. KCCPSCQAPIEKNEGCLHMTCAKCNHGFCWRCLKSWKPNHKD [R2C]  0.07 ± 0.18
15. YRCPSCQAPIEKNEGCLHMTCAKCNHGFCWRCLKSWKPNHKD [K1Y]  0.038 ± 0.38
16. MRCPSCQAPIEKNEGCLHMTCAKCNHGFCWRCLKSWKPNHKD [K1M]  -0.162 ± 0.17
17. KVCPSCQAPIEKNEGCLHMTCAKCNHGFCWRCLKSWKPNHKD [R2V]  -0.2 ± 0.094
18. KPCPSCQAPIEKNEGCLHMTCAKCNHGFCWRCLKSWKPNHKD [R2P]  -0.209 ± 0.13
19. KWCPSCQAPIEKNEGCLHMTCAKCNHGFCWRCLKSWKPNHKD [R2W]  -0.279 ± 0.11
20. TRCPSCQAPIEKNEGCLHMTCAKCNHGFCWRCLKSWKPNHKD [K1T]  -0.377 ± 0.19
21. HRCPSCQAPIEKNEGCLHMTCAKCNHGFCWRCLKSWKPNHKD [K1H]  -0.436 ± 0.29
22. VRCPSCQAPIEKNEGCLHMTCAKCNHGFCWRCLKSWKPNHKD [K1V]  -0.46 ± 0.11
23. LRCPSCQAPIEKNEGCLHMTCAKCNHGFCWRCLKSWKPNHKD [K1L]  -0.493 ± 0.15
24. ERCPSCQAPIEKNEGCLHMTCAKCNHGFCWRCLKSWKPNHKD [K1E]  -0.586 ± 0.11
25. QRCPSCQAPIEKNEGCLHMTCAKCNHGFCWRCLKSWKPNHKD [K1Q]  -0.691 ± 0.4
26. FRCPSCQAPIEKNEGCLHMTCAKCNHGFCWRCLKSWKPNHKD [K1F]  -0.735 ± 0.39
27. SRCPSCQAPIEKNEGCLHMTCAKCNHGFCWRCLKSWKPNHKD [K1S]  -0.756 ± 0.15
28. GRCPSCQAPIEKNEGCLHMTCAKCNHGFCWRCLKSWKPNHKD [K1G]  -0.815 ± 0.097
29. RRCPSCQAPIEKNEGCLHMTCAKCNHGFCWRCLKSWKPNHKD [K1R]  -0.948 ± 0.12
30. KRAPSCQAPIEKNEGCLHMTCAKCNHGFCWRCLKSWKPNHKD [C3A]  -1.03 ± 0.12
31. CRCPSCQAPIEKNEGCLHMTCAKCNHGFCWRCLKSWKPNHKD [K1C]  -1.12 ± 0.26
32. WRCPSCQAPIEKNEGCLHMTCAKCNHGFCWRCLKSWKPNHKD [K1W]  -1.42 ± 0.38
